This passage reports Kd results from PMC9991925 (2022).

The target of assay [1] is recombinant mouse TfR (mouse, UniProt Q62351 1-763). The assay can be described thus: ELISA.
In assay [2] the target is Fc(aMD4)M2 (human, UniProt P01857 104-330 = IgG part). Briefly: SPR. For orientation: Surface plasmon resonance follows binding to a sensor surface in real time, without labels.
Assay [3] addresses Fc(aMD4)T1 (human, UniProt P01857 104-330 = IgG part). Briefly: SPR.
In assay [4] the target is Fc(aMD4)T2 (human, UniProt P01857 104-330 = IgG part). Briefly: SPR.
Assay [5] addresses Fc(aMD4ds)B3 (human, UniProt P01857 104-330 = IgG part). The assay can be described thus: SPR.
In assay [6] the target is Fc(aMD4)B2 (human, UniProt P01857 104-330 = IgG part). The assay can be described thus: SPR.
For assay [7], the target named is Fc(aMD4)T3. The assay can be described thus: SPR.
The target in assay [8] is Fc(aMD4)B1 (human, UniProt P01857 104-330 = IgG part). Briefly: SPR.
Assay [9] concerns the target Fc(aMD4)B3 (human, UniProt P01857 104-330 = IgG part). Briefly: SPR.
Assay [10] addresses Fc(aMD4ds)T1 (human, UniProt P01857 104-330 = IgG part). The assay can be described thus: SPR.

Sequence of recombinant mouse TfR (Q62351 89-763): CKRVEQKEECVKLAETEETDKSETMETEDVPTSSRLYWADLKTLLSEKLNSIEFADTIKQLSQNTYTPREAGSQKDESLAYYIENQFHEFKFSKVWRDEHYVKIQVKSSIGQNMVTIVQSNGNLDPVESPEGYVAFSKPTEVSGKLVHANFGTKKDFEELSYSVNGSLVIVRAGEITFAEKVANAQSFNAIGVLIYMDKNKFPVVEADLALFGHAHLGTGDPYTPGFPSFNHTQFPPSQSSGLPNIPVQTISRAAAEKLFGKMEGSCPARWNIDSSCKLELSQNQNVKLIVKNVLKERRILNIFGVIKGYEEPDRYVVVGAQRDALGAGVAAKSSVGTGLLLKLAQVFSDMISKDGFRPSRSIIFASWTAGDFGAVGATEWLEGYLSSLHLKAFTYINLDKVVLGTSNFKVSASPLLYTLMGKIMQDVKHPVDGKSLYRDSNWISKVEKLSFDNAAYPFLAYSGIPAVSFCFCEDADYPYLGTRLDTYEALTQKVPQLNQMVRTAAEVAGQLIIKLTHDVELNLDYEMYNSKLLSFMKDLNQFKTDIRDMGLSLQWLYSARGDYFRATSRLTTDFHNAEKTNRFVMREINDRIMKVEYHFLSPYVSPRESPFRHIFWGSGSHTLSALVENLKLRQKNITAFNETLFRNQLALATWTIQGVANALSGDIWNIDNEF

B1: sTfR(aMD4) (antibody, V domains shown)
VH: EVQLVESGGGLVQPGNSLTLSCVASGFTFSNYGMHWIRQAPKKGLEWIAMIYYDSSKMNYADTVKGRFTISRDNSKNTLYLEMNSLRSEDTAMYYCAVPTSHYVVDVWGQGVSVTVSS
VL: DIQMTQSPASLSASLEEIVTITCQASQDIGNWLAWYQQKPGKSPQLLIYGATSLADGVPSRFSGSRSGTQFSLKISRVQVEDIGIYYCLQAYNTPWTFGGGTKLELK
The term Kd denotes a measure of binding affinity in units of concentration. Turning to B1, the equilibrium dissociation constant (Kd) in assay [1] was found to be 30.8 nM.

B2: dTfR(aMD4) (antibody, V domains shown)
VH: B1 VH
VL: B1 VL
With B2, the dissociation constant Kd in assay [1] was determined as 0.36 nM.

B3: ectodomain fragment of human Met (MetECD, 1-931), biotinylated (domain or fragment)
chain: ECKEALAKSEMNVNMKYQLPNFTAETPIQNVILHEHHIFLGATNYIYVLNEEDLQKVAEYKTGPVLEHPDCFPCQDCSSKANLSGGVWKDNINMALVVDTYYDDQLISCGSVNRGTCQRHVFPHNHTADIQSEVHCIFSPQIEEPSQCPDCVVSALGAKVLSSVKDRFINFFVGNTINSSYFPDHPLHSISVRRLKETKDGFMFLTDQSYIDVLPEFRDSYPIKYVHAFESNNFIYFLTVQRETLDAQTFHTRIIRFCSINSGLHSYMEMPLECILTEKRKKRSTKKEVFNILQAAYVSKPGAQLARQIGASLNDDILFGVFAQSKPDSAEPMDRSAMCAFPIKYVNDFFNKIVNKNNVRCLQHFYGPNHEHCFNRTLLRNSSGCEARRDEYRTEFTTALQRVDLFMGQFSEVLLTSISTFIKGDLTIANLGTSEGRFMQVVVSRSGPSTPHVNFLLDSHPVSPEVIVEHTLNQNGYTLVITGKKITKIPLNGLGCRHFQSCSQCLSAPPFVQCGWCHDKCVRSEECLSGTWTQQICLPAIYKVFPNSAPLEGGTRLTICGWDFGFRRNNKFDLKKTRVLLGNESCTLTLSESTMNTLKCTVGPAMNKHFNMSIIISNGHGTTQYSTFSYVDPVITSISPKYGPMAGGTLLTLTGNYLNSGNSRHISIGGKTCTLKSVSNSILECYTPAQTISTEFAVKLKIDLANRETSIFSYREDPIVYEIHPTKSFISGGSTITGVGKNLNSVSVPRMVINVHEAGRNFTVACQHRSNSEIICCTTPSLQQLNLQLPLKTKAFFMLDGILSKYFDLIYVHNPVFKPFEKPVMISMGNENVLEIKGNDIDPEAVKGEVLKVGNKSCENIHLHSEAVLCTVPNDLLKLNSELNIEWKQAISSTVLGKVIVQPDQNF
modifications: biotin on the biotin acceptor sequence (BirA-mediated)
As to B3, the Kd in [2] worked out at 18.9 nM; in assay [3], 75.8 nM; in assay [4], 401 nM; in [5] it was 3.7 nM; in [6], 79.1 nM; in assay [7], 652 nM. The dissociation constant Kd in assay [8] was determined as 10.8 nM; in assay [9] it was 4 nM; in [10], 73.4 nM.
